Source: IntAct's records for PubMed 31515488

B1: Four and a half LIM domains protein 2 (Homo sapiens), Q14192 (parent)
chain: MTERFDCHHCNESLFGKKYILREESPYCVVCFETLFANTCEECGKPIGCDCKDLSYKDRHWHEACFHCSQCRNSLVDKPFAAKEDQLLCTDCYSNEYSSKCQECKKTIMPGTRKMEYKGSSWHETCFICHRCQQPIGTKSFIPKDNQNFCVPCYEKQHAMQCVQCKKPITTGGVTYREQPWHKECFVCTACRKQLSGQRFTARDDFAYCLNCFCDLYAKKCAGCTNPISGLGGTKYISFEERQWHNDCFNCKKCSLSLVGRGFLTERDDILCPDCGKDI
partner: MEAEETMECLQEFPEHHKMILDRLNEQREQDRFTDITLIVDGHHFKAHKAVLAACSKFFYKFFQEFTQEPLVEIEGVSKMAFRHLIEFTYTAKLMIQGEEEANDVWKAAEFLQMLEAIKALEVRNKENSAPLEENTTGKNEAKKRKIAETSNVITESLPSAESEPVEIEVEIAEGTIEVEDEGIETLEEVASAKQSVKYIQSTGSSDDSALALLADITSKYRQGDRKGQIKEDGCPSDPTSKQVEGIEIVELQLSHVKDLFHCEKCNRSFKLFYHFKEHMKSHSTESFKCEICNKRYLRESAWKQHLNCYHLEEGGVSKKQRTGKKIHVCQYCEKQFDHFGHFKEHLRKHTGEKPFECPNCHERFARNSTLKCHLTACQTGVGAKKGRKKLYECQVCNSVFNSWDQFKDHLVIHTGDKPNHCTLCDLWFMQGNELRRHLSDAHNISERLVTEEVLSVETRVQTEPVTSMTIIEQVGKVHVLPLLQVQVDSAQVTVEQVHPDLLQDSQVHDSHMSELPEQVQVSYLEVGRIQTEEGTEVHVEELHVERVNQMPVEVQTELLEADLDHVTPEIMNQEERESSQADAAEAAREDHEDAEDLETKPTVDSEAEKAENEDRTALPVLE
B2: Keratin, type I cuticular Ha8 (Homo sapiens), O76015 (parent)
chain: MTSSYSSSSCPLGCTMAPGARNVSVSPIDIGCQPGAEANIAPMCLLANVAHANRVRVGSTPLGRPSLCLPPTCHTACPLPGTCHIPGNIGICGAYGENTLNGHEKETMQFLNDRLANYLEKVRQLEQENAELEATLLERSKCHESTVCPDYQSYFHTIEELQQKILCSKAENARLIVQIDNAKLAADDFRIKLESERSLRQLVEADKCGTQKLLDDATLAKADLEAQQESLKEEQLSLKSNHEQEVKILRSQLGEKLRIELDIEPTIDLNRVLGEMRAQYEAMLETNRQDVEQWFQAQSEGISLQDMSCSEELQCCQSEILELRCTVNALEVERQAQHTLKDCLQNSLCEAEDRFGTELAQMQSLISNVEEQLSEIRADLERQNQEYQVLLDVKTRLENEIATYRNLLESEDCKLPCNPCSTSPSCVTAPCAPRPSCGPCTTCGPTCGASTTGSRF
partner: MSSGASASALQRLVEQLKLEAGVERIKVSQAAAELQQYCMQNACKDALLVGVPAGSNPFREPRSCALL
B3: Microtubule-associated tumor suppressor candidate 2 (Homo sapiens), Q5JR59-3 (parent)
chain: MGHCCCKPYNCLQCLDKTNESALVKEKELSIELANIRDEVAFHTAKCEKLQKEKEELERRFEDEVKRLGWQQQAELQELEERLQLQFEAEMARLQEEHGDQLLSIRCQHQEQVEDLTASHDAALLEMENNHTVAITILQDDHDHKVQELMSTHELEKKELEENFEKLRLSLQDQVDTLTFQSQSLRDRARRFEEALRKNTEEQLEIALAPYQHLEEDMKSLKQVLEMKNQQIHEQEKKILELEKLAEKNIILEEKIQVLQQQNEDLKARIDQNTVVTRQLSEENANLQEYVEKETQEKKRLSRTNEELLWKLQTGDPTSPIKLSPTSPVYRGSSSGPSSPARVSTTPR
partner: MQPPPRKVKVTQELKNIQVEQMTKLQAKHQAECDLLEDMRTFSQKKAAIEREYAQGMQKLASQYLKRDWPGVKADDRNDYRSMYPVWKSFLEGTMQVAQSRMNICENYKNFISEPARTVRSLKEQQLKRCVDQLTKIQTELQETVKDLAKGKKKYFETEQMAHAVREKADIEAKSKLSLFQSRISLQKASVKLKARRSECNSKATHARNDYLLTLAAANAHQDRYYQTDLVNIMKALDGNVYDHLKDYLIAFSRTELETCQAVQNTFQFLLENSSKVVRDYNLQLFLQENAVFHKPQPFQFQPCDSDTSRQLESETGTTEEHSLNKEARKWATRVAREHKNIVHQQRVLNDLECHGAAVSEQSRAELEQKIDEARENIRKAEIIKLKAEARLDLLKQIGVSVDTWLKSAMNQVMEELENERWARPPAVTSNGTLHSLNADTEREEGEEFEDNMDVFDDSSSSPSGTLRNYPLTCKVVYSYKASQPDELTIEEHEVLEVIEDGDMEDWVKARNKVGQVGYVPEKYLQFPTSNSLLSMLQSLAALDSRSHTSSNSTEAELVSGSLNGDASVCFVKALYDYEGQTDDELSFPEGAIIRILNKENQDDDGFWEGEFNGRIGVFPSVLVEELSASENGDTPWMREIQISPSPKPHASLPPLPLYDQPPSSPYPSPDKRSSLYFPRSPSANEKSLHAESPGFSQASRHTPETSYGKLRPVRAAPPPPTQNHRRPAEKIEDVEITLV
B4: Cytochrome b-245 chaperone 1 (Homo sapiens), Q9BQA9 (parent)
chain: MYLQVETRTSSRLHLKRAPGIRSWSLLVGILSIGLAAAYYSGDSLGWKLFYVTGCLFVAVQNLEDWEEAIFDKSTGKVVLKTFSLYKKLLTLFRAGHDQVVVLLHDVRDVSVEEEKVRYFGKGYMVVLRLATGFSHPLTQSAVMGHRSDVEAIAKLITSFLELHCLESPTELSQSSDSEAGDPASQS
partner: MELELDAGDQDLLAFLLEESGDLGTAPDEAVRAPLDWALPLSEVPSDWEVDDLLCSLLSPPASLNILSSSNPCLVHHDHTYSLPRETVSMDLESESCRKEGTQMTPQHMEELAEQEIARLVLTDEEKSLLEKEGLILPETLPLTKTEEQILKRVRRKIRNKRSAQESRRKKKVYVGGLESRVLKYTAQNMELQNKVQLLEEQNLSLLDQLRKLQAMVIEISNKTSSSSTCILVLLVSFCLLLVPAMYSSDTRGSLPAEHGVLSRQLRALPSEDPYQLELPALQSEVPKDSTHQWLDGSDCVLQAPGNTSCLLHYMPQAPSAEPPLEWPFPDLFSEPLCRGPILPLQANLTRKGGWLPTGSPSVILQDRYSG
B5: PHD finger protein 1 (Homo sapiens), O43189 (parent)
chain: MAQPPRLSRSGASSLWDPASPAPTSGPRPRLWEGQDVLARWTDGLLYLGTIKKVDSAREVCLVQFEDDSQFLVLWKDISPAALPGEELLCCVCRSETVVPGNRLVSCEKCRHAYHQDCHVPRAPAPGEGEGTSWVCRQCVFAIATKRGGALKKGPYARAMLGMKLSLPYGLKGLDWDAGHLSNRQQSYCYCGGPGEWNLKMLQCRSCLQWFHEACTQCLSKPLLYGDRFYEFECCVCRGGPEKVRRLQLRWVDVAHLVLYHLSVCCKKKYFDFDREILPFTSENWDSLLLGELSDTPKGERSSRLLSALNSHKDRFISGREIKKRKCLFGLHARMPPPVEPPTGDGALTSFPSGQGPGGGVSRPLGKRRRPEPEPLRRRQKGKVEELGPPSAVRNQPEPQEQRERAHLQRALQASVSPPSPSPNQSYQGSSGYNFRPTDARCLPSSPIRMFASFHPSASTAGTSGDSGPPDRSPLELHIGFPTDIPKSAPHSMTASSSSVSSPSPGLPRRSAPPSPLCRSLSPGTGGGVRGGVGYLSRGDPVRVLARRVRPDGSVQYLVEWGGGGIF
partner: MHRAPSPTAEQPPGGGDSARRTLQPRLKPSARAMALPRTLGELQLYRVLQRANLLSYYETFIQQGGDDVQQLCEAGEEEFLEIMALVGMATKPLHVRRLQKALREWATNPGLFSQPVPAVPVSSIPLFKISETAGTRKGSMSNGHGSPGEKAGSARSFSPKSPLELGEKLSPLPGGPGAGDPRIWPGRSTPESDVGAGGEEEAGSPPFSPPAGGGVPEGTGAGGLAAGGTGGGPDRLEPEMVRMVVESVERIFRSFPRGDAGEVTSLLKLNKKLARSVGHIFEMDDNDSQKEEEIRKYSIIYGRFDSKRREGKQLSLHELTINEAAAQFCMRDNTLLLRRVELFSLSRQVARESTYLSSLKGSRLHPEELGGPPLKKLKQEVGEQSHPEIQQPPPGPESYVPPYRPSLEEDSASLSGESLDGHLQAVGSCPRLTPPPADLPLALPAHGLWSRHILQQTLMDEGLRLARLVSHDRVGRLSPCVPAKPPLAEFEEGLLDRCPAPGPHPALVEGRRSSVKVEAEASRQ
B6: Four and a half LIM domains protein 2 (Homo sapiens), Q14192 (parent)
chain: B1 chain
partner: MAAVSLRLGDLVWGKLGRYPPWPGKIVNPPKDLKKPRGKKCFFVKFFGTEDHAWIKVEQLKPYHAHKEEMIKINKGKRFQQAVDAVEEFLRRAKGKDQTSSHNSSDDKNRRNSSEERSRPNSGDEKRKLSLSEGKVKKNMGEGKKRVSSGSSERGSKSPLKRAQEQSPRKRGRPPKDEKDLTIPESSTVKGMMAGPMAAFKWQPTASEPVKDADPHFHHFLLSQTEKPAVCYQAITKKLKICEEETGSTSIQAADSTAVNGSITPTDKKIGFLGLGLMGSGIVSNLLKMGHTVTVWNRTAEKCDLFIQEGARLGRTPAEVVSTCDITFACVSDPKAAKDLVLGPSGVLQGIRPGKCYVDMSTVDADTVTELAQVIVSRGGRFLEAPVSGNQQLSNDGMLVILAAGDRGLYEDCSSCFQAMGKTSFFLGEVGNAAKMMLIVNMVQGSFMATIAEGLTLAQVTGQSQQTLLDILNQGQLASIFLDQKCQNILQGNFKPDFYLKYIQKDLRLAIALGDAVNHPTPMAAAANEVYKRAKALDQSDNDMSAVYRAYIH

Variants of: B1
Details: with zn131_human ZNF131, P52739

Variant	effect of a mutation on the interaction
A37S	with no effect

Variants of: B2
Details: with gbg10_human GNG10, P50151

Variant	effect of a mutation on the interaction
A205S	with no effect

Variants of: B3
Details: with fcsd2_human FCHSD2, O94868

Variant	effect of a mutation on the interaction
A89V	with no effect

Variants of: B4
Details: with creb3_human CREB3, O43889

Variant	effect of a mutation on the interaction
R129W	with no effect

Variants of: B5
Details: with nab2_human NAB2, Q15742

Variant	effect of a mutation on the interaction
S14L	with no effect

Variants of: B6
Details: with glyr1_human GLYR1, Q49A26

Variant	effect of a mutation on the interaction
A37S	with no effect
